Test results taken from PMC5840032 (Bioorganic & medicinal chemistry, 2017).

Molecular target: anthrax lethal factor (LF) protease (UniProt P15917 34-809)
Test: enzyme inhibition assay

Chain of anthrax lethal factor (LF) protease (P15917 34-809): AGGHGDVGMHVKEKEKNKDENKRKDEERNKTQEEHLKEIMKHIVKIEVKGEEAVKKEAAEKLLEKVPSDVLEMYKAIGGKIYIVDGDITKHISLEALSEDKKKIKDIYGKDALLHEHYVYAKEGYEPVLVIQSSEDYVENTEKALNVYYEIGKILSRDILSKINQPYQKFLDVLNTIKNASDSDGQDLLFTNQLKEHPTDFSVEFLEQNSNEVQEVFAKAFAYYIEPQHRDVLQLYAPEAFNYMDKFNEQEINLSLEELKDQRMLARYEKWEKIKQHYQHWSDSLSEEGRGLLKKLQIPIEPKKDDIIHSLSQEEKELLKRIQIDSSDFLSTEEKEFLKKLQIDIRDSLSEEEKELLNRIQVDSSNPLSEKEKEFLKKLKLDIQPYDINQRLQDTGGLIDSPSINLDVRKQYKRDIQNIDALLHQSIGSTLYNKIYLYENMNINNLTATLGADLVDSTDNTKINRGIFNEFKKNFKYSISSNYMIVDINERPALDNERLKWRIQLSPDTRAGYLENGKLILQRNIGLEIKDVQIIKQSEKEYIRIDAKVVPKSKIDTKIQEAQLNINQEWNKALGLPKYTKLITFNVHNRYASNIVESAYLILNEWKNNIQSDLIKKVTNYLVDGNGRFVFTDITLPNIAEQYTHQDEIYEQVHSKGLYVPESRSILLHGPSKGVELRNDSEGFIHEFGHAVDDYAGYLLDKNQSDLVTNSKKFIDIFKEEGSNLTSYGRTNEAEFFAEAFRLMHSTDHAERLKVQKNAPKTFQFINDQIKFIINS

Binder | Ki [nM]
GFCRCPCSRYGCWCICTR (not fully specified; backbone-cyclized; three disulfide bonds) [RTD-1 analog clone #52] | 946 ± 58
GFCRCACLHGVCRCICTR (not fully specified; backbone-cyclized; three disulfide bonds) [RTD-1 analog clone #14] | 946 ± 47
